Assay results from article PMC4191429, “Interactions of the yeast mitochondrial RNA polymerase with the +1 and +2 promoter bases dictate transcription initiation efficiency”.

Tests used:
Details in all cases: protein: recombinant;recombinant; tags: Ni2+ column purified; copies: 1;1; label: 2-aminopurine
[1] = biological target: T1, Rpo41 (mitochondrial RNA polymerase);Mtf1 (mitochondrial transcription initiation factor) (Saccharomyces cerevisiae;Saccharomyces …, UniProt P13433;P14908 1-1351;2-341, |); test: 2-aminopurine fluorescence; ATP+GTP; 2-AP assay buffer, salt, pH and temperature not in the material (transcription assays at 25 C)
T1 sequence (P13433 whole entry, chain 1 of 2): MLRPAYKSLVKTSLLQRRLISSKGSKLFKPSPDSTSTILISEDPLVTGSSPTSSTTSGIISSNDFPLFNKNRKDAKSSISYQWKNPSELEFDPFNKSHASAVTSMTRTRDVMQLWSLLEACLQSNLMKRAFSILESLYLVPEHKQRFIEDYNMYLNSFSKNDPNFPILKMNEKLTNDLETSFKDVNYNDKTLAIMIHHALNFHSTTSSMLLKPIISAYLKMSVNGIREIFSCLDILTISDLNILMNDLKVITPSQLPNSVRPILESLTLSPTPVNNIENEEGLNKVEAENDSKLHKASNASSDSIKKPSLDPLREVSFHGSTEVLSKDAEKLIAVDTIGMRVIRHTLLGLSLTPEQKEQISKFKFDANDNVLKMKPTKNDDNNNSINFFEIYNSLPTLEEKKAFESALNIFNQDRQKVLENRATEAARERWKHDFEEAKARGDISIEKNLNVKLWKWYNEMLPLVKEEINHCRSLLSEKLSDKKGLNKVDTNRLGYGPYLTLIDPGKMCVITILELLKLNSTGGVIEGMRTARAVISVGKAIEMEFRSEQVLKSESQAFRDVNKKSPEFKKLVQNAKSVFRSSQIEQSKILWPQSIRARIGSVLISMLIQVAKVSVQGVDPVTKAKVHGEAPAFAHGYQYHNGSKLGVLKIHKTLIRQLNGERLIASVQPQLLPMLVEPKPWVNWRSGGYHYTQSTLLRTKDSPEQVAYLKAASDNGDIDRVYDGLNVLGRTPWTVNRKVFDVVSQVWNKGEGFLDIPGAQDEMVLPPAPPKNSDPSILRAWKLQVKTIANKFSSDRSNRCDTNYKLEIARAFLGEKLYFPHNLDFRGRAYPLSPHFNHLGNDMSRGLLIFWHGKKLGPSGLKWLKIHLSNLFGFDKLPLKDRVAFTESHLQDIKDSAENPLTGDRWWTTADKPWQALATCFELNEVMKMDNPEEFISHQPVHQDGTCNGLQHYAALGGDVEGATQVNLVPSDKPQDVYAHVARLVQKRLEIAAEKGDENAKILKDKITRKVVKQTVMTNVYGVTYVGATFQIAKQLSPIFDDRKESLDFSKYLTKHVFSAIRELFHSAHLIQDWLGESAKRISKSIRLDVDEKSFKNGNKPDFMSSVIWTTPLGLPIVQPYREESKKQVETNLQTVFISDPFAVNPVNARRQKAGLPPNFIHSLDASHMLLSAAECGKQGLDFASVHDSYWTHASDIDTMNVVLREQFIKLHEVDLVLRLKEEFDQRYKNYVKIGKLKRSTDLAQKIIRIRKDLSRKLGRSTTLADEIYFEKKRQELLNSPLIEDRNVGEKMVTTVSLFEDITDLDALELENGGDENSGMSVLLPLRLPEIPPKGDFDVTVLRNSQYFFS
T1 sequence (P14908 2-341, chain 2 of 2): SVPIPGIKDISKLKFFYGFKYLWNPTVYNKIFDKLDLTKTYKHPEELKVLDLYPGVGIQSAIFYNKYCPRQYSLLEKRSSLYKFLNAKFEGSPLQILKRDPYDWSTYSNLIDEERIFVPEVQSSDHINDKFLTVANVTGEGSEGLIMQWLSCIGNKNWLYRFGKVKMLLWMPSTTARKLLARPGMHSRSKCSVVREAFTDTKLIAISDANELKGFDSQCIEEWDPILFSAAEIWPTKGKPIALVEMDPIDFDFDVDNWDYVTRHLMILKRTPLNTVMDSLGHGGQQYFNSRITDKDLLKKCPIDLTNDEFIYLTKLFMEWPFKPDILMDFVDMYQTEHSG

[2] = biological target: T1, Rpo41 (mitochondrial RNA …); test: 2-aminopurine fluorescence; no NTP; 2-AP assay buffer, salt, pH and temperature not in the material (transcription assays at 25 C)
[3] = biological target: T1, Rpo41 (mitochondrial RNA …); test: 2-aminopurine fluorescence; ATP; 2-AP assay buffer, salt, pH and temperature not in the material (transcription assays at 25 C)

B1: 21S rRNA promoter (+1+2 AG), 2-AP at -1 template (dsDNA)
DNA 1: TATTATTATTATTATATATATAAGTAGTAAAAAGTAGAATAATCT
DNA 2: AGATTATTCTACTTTTTACTACTTATATATATAATAATAATAATA
modifications: 2-aminopurine at -1 template
binding signal [1]: ~4 further fold 2-AP fluorescence increase over the complex without NTP
binding signal [2]: ~5 fold 2-AP fluorescence increase

B2: 15S rRNA promoter (+1+2 AA), 2-AP at -1 template (dsDNA)
DNA 1: ATAATTTATTTATTATTATATAAGTAATAAATAATAGTTTTATCT
DNA 2: AGATAAAACTATTATTTATTACTTATATAATAATAAATAAATTAT
modifications: 2-aminopurine at -1 template
binding signal [3]: ~4 further fold 2-AP fluorescence increase over the complex without NTP
binding signal [2]: ~5 fold 2-AP fluorescence increase
